Columns and labels:
Settings in all cases: protein: recombinant; chain copies: 2; label: 5'-32P
Fis WT [1] = target: T1, Fis WT (UniProt P0A6R3 1-98); assay: EMSA; EMSA: 20 mM Hepes pH 7.5, 0.15 M NaCl, 5% glycerol, 0.5 mg/ml BSA, 1 mM EDTA, 1 mM DTT, 0.1 nM 32P 27 bp probe, 50 ug/ml poly dI/dC; temperature not stated
Fis R71A = Fis R71A (UniProt P0A6R3 1-98, R71A); assay: as above
Fis T75A [2] = target: T2, Fis T75A (UniProt P0A6R3 1-98, T75A); assay: as above
Fis WT [3] = target: T1, Fis WT; assay: EMSA; t1/2 4 min; EMSA: 20 mM Hepes pH 7.5, 0.15 M NaCl, 5% glycerol, 0.5 mg/ml BSA, 1 mM EDTA, 1 mM DTT, 0.1 nM 32P 27 bp probe, 50 ug/ml poly dI/dC; temperature not stated
Fis WT [4] = target: T1, Fis WT; assay: X-ray crystallography; EMSA: 20 mM Hepes pH 7.5, 0.15 M NaCl, 5% glycerol, 0.5 mg/ml BSA, 1 mM EDTA, 1 mM DTT, 0.1 nM 32P 27 bp probe, 50 ug/ml poly dI/dC; temperature not stated
Fis WT [5] = target: T1, Fis WT; assay: X-ray crystallography; 2.7 A; EMSA: 20 mM Hepes pH 7.5, 0.15 M NaCl, 5% glycerol, 0.5 mg/ml BSA, 1 mM EDTA, 1 mM DTT, 0.1 nM 32P 27 bp probe, 50 ug/ml poly dI/dC; temperature not stated
Fis WT [6] = target: T1, Fis WT; assay: X-ray crystallography; 2.8 A; EMSA: 20 mM Hepes pH 7.5, 0.15 M NaCl, 5% glycerol, 0.5 mg/ml BSA, 1 mM EDTA, 1 mM DTT, 0.1 nM 32P 27 bp probe, 50 ug/ml poly dI/dC; temperature not stated
Fis WT [7] = target: T1, Fis WT; assay: EMSA; t1/2 22 min; EMSA: 20 mM Hepes pH 7.5, 0.15 M NaCl, 5% glycerol, 0.5 mg/ml BSA, 1 mM EDTA, 1 mM DTT, 0.1 nM 32P 27 bp probe, 50 ug/ml poly dI/dC; temperature not stated
Fis WT [8] = target: T1, Fis WT; assay: EMSA; t1/2 14 min; EMSA: 20 mM Hepes pH 7.5, 0.15 M NaCl, 5% glycerol, 0.5 mg/ml BSA, 1 mM EDTA, 1 mM DTT, 0.1 nM 32P 27 bp probe, 50 ug/ml poly dI/dC; temperature not stated
Fis WT [9] = target: T1, Fis WT; assay: X-ray crystallography; 3.5 A, partially refined; EMSA: 20 mM Hepes pH 7.5, 0.15 M NaCl, 5% glycerol, 0.5 mg/ml BSA, 1 mM EDTA, 1 mM DTT, 0.1 nM 32P 27 bp probe, 50 ug/ml poly dI/dC; temperature not stated
Fis WT [10] = target: T1, Fis WT; assay: EMSA; affinity as F1, lifetime increased; EMSA: 20 mM Hepes pH 7.5, 0.15 M NaCl, 5% glycerol, 0.5 mg/ml BSA, 1 mM EDTA, 1 mM DTT, 0.1 nM 32P 27 bp probe, 50 ug/ml poly dI/dC; temperature not stated
Fis WT [11] = target: T1, Fis WT; assay: EMSA; t1/2 8 min; EMSA: 20 mM Hepes pH 7.5, 0.15 M NaCl, 5% glycerol, 0.5 mg/ml BSA, 1 mM EDTA, 1 mM DTT, 0.1 nM 32P 27 bp probe, 50 ug/ml poly dI/dC; temperature not stated
Fis WT [12] = target: T1, Fis WT; assay: EMSA; fold printed as 6; EMSA: 20 mM Hepes pH 7.5, 0.15 M NaCl, 5% glycerol, 0.5 mg/ml BSA, 1 mM EDTA, 1 mM DTT, 0.1 nM 32P 27 bp probe, 50 ug/ml poly dI/dC; temperature not stated
Fis WT [13] = target: T1, Fis WT; assay: X-ray crystallography; 2.9 A, C2; EMSA: 20 mM Hepes pH 7.5, 0.15 M NaCl, 5% glycerol, 0.5 mg/ml BSA, 1 mM EDTA, 1 mM DTT, 0.1 nM 32P 27 bp probe, 50 ug/ml poly dI/dC; temperature not stated
Fis WT [14] = target: T1, Fis WT; assay: EMSA; t1/2 4 min; EMSA: 20 mM Hepes pH 7.5, 0.15 M NaCl, 5% glycerol, 0.5 mg/ml BSA, 1 mM EDTA, 1 mM DTT, 0.1 nM 32P 27 bp probe, 50 ug/ml poly dI/dC; temperature not stated; remark: listed apart in the source
Fis WT [15] = target: T1, Fis WT; assay: EMSA; t1/2 <0.25 min; EMSA: 20 mM Hepes pH 7.5, 0.15 M NaCl, 5% glycerol, 0.5 mg/ml BSA, 1 mM EDTA, 1 mM DTT, 0.1 nM 32P 27 bp probe, 50 ug/ml poly dI/dC; temperature not stated
Fis T75A [16] = target: T2, Fis T75A; assay: EMSA; error as printed; EMSA: 20 mM Hepes pH 7.5, 0.15 M NaCl, 5% glycerol, 0.5 mg/ml BSA, 1 mM EDTA, 1 mM DTT, 0.1 nM 32P 27 bp probe, 50 ug/ml poly dI/dC; temperature not stated
Fis N73A = Fis N73A (UniProt P0A6R3 1-98, N73A); assay: EMSA; EMSA: 20 mM Hepes pH 7.5, 0.15 M NaCl, 5% glycerol, 0.5 mg/ml BSA, 1 mM EDTA, 1 mM DTT, 0.1 nM 32P 27 bp probe, 50 ug/ml poly dI/dC; temperature not stated
Sequence of Fis N73A (P0A6R3 whole entry N73A): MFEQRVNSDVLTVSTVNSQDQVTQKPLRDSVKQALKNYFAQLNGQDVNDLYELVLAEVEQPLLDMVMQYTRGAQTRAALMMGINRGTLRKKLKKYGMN

Fis WT [17] = target: T1, Fis WT; assay: EMSA; t1/2 41 min; Table 3 gives error 0.05; EMSA: 20 mM Hepes pH 7.5, 0.15 M NaCl, 5% glycerol, 0.5 mg/ml BSA, 1 mM EDTA, 1 mM DTT, 0.1 nM 32P 27 bp probe, 50 ug/ml poly dI/dC; temperature not stated

Sequence of Fis R71A (P0A6R3 whole entry R71A): as the sequence (P0A6R3 whole entry N73A) above, with R71A, A73N counted along it
T2 sequence (P0A6R3 whole entry T75A): as the sequence (P0A6R3 whole entry N73A) above, with A73N, T75A counted along it
T1 sequence (P0A6R3 whole entry): as the sequence (P0A6R3 whole entry N73A) above, with A73N counted along it

B1: INV±9-10T (dsDNA)
DNA 1: TTTATTGTTTGAATTTTGAGCAATAAA
DNA 2: TTTATTGCTCAAAATTCAAACAATAAA
In the case of B1, the Kd (Fis WT [1]) is reported as 0.4 ± 0.1 nM.

B2: F27 (dsDNA)
DNA 1: AAATTTGTTTGAACTTTGAGCAAATTT
DNA 2: AAATTTGCTCAAAGTTCAAACAAATTT
For B2, the Kd (Fis R71A) was 2.8 ± 0.5 nM, the Kd (Fis WT [1]) was 0.2 ± 0.1 nM and the Kd (Fis T75A [2]) was 3.5 ± 0.9 nM.

B3: INV-CAT (dsDNA)
DNA 1: TTTCATGTTTGAATTTTGAGCATGAAA
DNA 2: TTTCATGCTCAAAATTCAAACATGAAA
In the case of B3, the Kd (Fis WT [1]) is reported as 2.9 ± 1 nM.

B4: INV±8T (dsDNA)
DNA 1: TTTAATGTTTGAATTTTGAGCATTAAA
DNA 2: TTTAATGCTCAAAATTCAAACATTAAA
B4 gave a Kd (Fis WT [3]) of 2.3 ± 0.7 nM.

B5: INV-GAT (dsDNA)
DNA 1: TTTGATGTTTGAATTTTGAGCATCAAA
DNA 2: TTTGATGCTCAAAATTCAAACATCAAA
With B5 the Kd (Fis WT [1]) was 2 ± 0.6 nM.

B6: F1±8A (dsDNA)
DNA 1: AAATTAGTTTGAATTTTGAGCTAATTT
DNA 2: AAATTAGCTCAAAATTCAAACTAATTT
B6: binds (Fis WT [4]).

B7: F31 (dsDNA)
DNA 1: AAATTTGTAGGAATTTTCTGCAAATTT
DNA 2: AAATTTGCAGAAAATTCCTACAAATTT
B7: binds (Fis WT [5]).

B8: F32 (dsDNA)
DNA 1: AAATTTGGAGGAATTTTCTCCAAATTT
DNA 2: AAATTTGGAGAAAATTCCTCCAAATTT
With B8 the binding result (Fis WT [6]) was “binds”, the Kd (Fis R71A) was 73 ± 11 nM and the Kd (Fis T75A [2]) was 76 ± 10 nM.

B9: F1±9A (dsDNA)
DNA 1: AAATATGTTTGAATTTTGAGCATATTT
DNA 2: AAATATGCTCAAAATTCAAACATATTT
Work on B9 yielded a Kd (Fis WT [7]) of 0.5 ± 0.2 nM.

B10: F1±8C (dsDNA)
DNA 1: AAATTCGTTTGAATTTTGAGCGAATTT
DNA 2: AAATTCGCTCAAAATTCAAACGAATTT
With B10 the Kd (Fis WT [8]) was 0.7 ± 0.2 nM.

B11: INV±8G (dsDNA)
DNA 1: TTTAAGGTTTGAATTTTGAGCCTTAAA
DNA 2: TTTAAGGCTCAAAATTCAAACCTTAAA
B11 gave a Kd (Fis WT [1]) of 250 ± 20 nM.

B12: F28 (dsDNA)
DNA 1: AAATTTGTTTGAGCGTTGAGCAAATTT
DNA 2: AAATTTGCTCAACGCTCAAACAAATTT
B12 gave a Kd (Fis R71A) of 470 ± 100 nM.

B13: F36 (dsDNA)
DNA 1: AAATTTGTTTGAATCTCGAGCAAATTT
DNA 2: AAATTTGCTCGAGATTCAAACAAATTT
B13: binds (Fis WT [9]).

B14: F1±8U (dsDNA)
DNA 1: AAATTUGTTTGAATTTTGAGCAAATTT
DNA 2: AAATTUGCTCAAAATTCAAACAAATTT
modifications: deoxyuridine for T at ±8 in DNA
B14: binds (Fis WT [10]).

B15: F34 (dsDNA)
DNA 1: AAGCTTGTTTGAATTTTGAGCAACGTT
DNA 2: AACGTTGCTCAAAATTCAAACAAGCTT
B15 was tested, and the Kd (Fis WT [11]) was 0.2 ± 0.1 nM.

B16: F16 (dsDNA)
DNA 1: GCGGTTGTTTGAATTTTGAGCAACCGC
DNA 2: GCGGTTGCTCAAAATTCAAACAACCGC
B16 gave a Kd (Fis WT [1]) of 0.5 ± 0.2 nM.

B17: F33 (dsDNA)
DNA 1: AAAGGTGTTTGAATTTTGAGCACCTTT
DNA 2: AAAGGTGCTCAAAATTCAAACACCTTT
For B17, the Kd (Fis WT [12]) was 0.6 ± 0.1 nM.

B18: F14 (dsDNA)
DNA 1: GGGTTTGTTTGAATTTTGAGCAAACCC
DNA 2: GGGTTTGCTCAAAATTCAAACAAACCC
Binder B18 has a Kd (Fis WT [1]) of 0.5 ± 0.1 nM.

B19: F35 (dsDNA)
DNA 1: AAATTAGTTTGAATCTCGAGCTAATTT
DNA 2: AAATTAGCTCGAGATTCAAACTAATTT
B19: binds (Fis WT [13]).

B20: F18 (dsDNA)
DNA 1: AAATTTGTTGGAATTTTCAGCAAATTT
DNA 2: AAATTTGCTGAAAATTCCAACAAATTT
In the case of B20, the binding signal (Fis WT [14]) is reported as 10 fold weaker than F1.

B21: INV (dsDNA)
DNA 1: TTTAAAGTTTGAATTTTGAGCTTTAAA
DNA 2: TTTAAAGCTCAAAATTCAAACTTTAAA
Work on B21 yielded a Kd (Fis WT [15]) of 33 ± 3 nM.

B22: F1 (±8T) (dsDNA)
DNA 1: AAATTTGTTTGAATTTTGAGCAAATTT
DNA 2: AAATTTGCTCAAAATTCAAACAAATTT
Work on B22 yielded a Kd (Fis T75A [16]) of 0.3 ± 0.8 nM, a Kd (Fis R71A) of 0.5 ± 0.2 nM and a Kd (Fis N73A) of 29 ± 0.2 nM. The Kd (Fis WT [17]) was 0.2 ± 0.07 nM.

B23: F15 (dsDNA)
DNA 1: CCCTTTGTTTGAATTTTGAGCAAAGGG
DNA 2: CCCTTTGCTCAAAATTCAAACAAAGGG
B23 gave a Kd (Fis WT [1]) of 0.4 ± 0.2 nM.

B24: F1±8G (dsDNA)
DNA 1: AAATTGGTTTGAATTTTGAGCCAATTT
DNA 2: AAATTGGCTCAAAATTCAAACCAATTT
In the case of B24, the binding result (Fis WT [4]) is reported as “binds”, the Kd (Fis R71A) is reported as 450 ± 20 nM and the Kd (Fis T75A [2]) is reported as 48 ± 5 nM.

B25: INV±8C (dsDNA)
DNA 1: TTTAACGTTTGAATTTTGAGCGTTAAA
DNA 2: TTTAACGCTCAAAATTCAAACGTTAAA
B25 gave a Kd (Fis WT [1]) of 6 ± 2 nM.

Source: publication PMC4784862, “DNA Sequence Determinants Controlling Affinity, Stability and Shape of DNA Complexes Bound by the Nucleoid Protein Fis”
